In article PMC9599700, “Biochemical and Structural Characterization of Chi-Class Glutathione Transferases: A Snapshot on the Glutathione Transferase Encoded by sll0067 Gene in the Cyanobacterium Synechocystis sp. Strain PCC 6803” (Biomolecules, 2022):

B1: SynGSTC1 (Sll0067) (Synechocystis sp. PCC 6803 substr. Kazusa) (protein)
chain: MIKLYGAPQSRASIIQWYLEELSLPYEFVNVNLKEGEHRQAPYLAINPFGKVPAIADGNFHLWESGAILLYLAEKASTIPADAQARALVNQWILFANSTLANGLFIEAVREKEMPRLLQSLEKILGRSPFILGEKFSVVDVAVGSILAYVPIMLKLNFDDYPAVAAYVQGLVQRPAFQASIGAR
notes: Ni-NTA and size exclusion; about 180 residues; two-fold dimer in crystal
B2: SynGSTC1 (Sll0067) (Synechocystis sp. PCC 6803 substr. Kazusa; R11A) (protein)
chain: MIKLYGAPQSAASIIQWYLEELSLPYEFVNVNLKEGEHRQAPYLAINPFGKVPAIADGNFHLWESGAILLYLAEKASTIPADAQARALVNQWILFANSTLANGLFIEAVREKEMPRLLQSLEKILGRSPFILGEKFSVVDVAVGSILAYVPIMLKLNFDDYPAVAAYVQGLVQRPAFQASIGAR
notes: as for B1
B3: SynGSTC1 (Sll0067) (Synechocystis sp. PCC 6803 substr. Kazusa; S10A) (protein)
chain: MIKLYGAPQARASIIQWYLEELSLPYEFVNVNLKEGEHRQAPYLAINPFGKVPAIADGNFHLWESGAILLYLAEKASTIPADAQARALVNQWILFANSTLANGLFIEAVREKEMPRLLQSLEKILGRSPFILGEKFSVVDVAVGSILAYVPIMLKLNFDDYPAVAAYVQGLVQRPAFQASIGAR
notes: as for B1
B4: SynGSTC1 (Sll0067) (Synechocystis sp. PCC 6803 substr. Kazusa; S10T) (protein)
chain: MIKLYGAPQTRASIIQWYLEELSLPYEFVNVNLKEGEHRQAPYLAINPFGKVPAIADGNFHLWESGAILLYLAEKASTIPADAQARALVNQWILFANSTLANGLFIEAVREKEMPRLLQSLEKILGRSPFILGEKFSVVDVAVGSILAYVPIMLKLNFDDYPAVAAYVQGLVQRPAFQASIGAR
notes: as for B1
B5: SynGSTC1 (Sll0067) (Synechocystis sp. PCC 6803 substr. Kazusa; S10C) (protein)
chain: MIKLYGAPQCRASIIQWYLEELSLPYEFVNVNLKEGEHRQAPYLAINPFGKVPAIADGNFHLWESGAILLYLAEKASTIPADAQARALVNQWILFANSTLANGLFIEAVREKEMPRLLQSLEKILGRSPFILGEKFSVVDVAVGSILAYVPIMLKLNFDDYPAVAAYVQGLVQRPAFQASIGAR
notes: as for B1

Columns and labels:
[1] = molecular target: T1, SynGSTC1 (Sll0067) (Synechocystis sp. PCC 6803, UniProt Q55139, S10C); assay: NADPH/glutathione reductase-coupled thiol-transferase assay, […] nm; assay type: biochemical; conditions: fixed saturating GSH; 200 µM NADPH; 30 mM Tris-HCl pH 8.0; 25 °C; read-out: HED
T1 construct: gene gst; Ni-NTA and size exclusion; about 180 residues; two-fold dimer in crystal
T1 sequence (Q55139 1-184 S10C): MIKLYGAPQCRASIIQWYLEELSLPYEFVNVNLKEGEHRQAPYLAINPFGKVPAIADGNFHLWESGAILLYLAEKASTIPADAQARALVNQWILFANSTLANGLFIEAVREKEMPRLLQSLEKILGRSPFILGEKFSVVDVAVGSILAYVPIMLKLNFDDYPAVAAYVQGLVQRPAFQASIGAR

[2] = molecular target: glutathione transferase chi1 from Synechocystis sp. PCC 6803 (SynGSTC1), wild-type (Synechocystis sp. PCC 6803); assay: crystal structure; co-crystallised with 10 mM glutathione and 1 mM TCEP, microbatch under oil at 4 °C; space group P4(3)2(1)2, two polypeptide chains in the asymmetric unit
[3] = molecular target: T2, SynGSTC1 (Sll0067) (Synechocystis sp. PCC 6803, UniProt Q55139); assay: GSH-conjugation assay, spectrophotometric […] nm, Michaelis-Menten fit; assay type: biochemical; conditions: fixed saturating GSH; 100 mM phosphate pH 6.5; 25 °C
T2 construct: gene gst; Ni-NTA and size exclusion; about 180 residues; two-fold dimer in crystal
T2 sequence (Q55139 1-184): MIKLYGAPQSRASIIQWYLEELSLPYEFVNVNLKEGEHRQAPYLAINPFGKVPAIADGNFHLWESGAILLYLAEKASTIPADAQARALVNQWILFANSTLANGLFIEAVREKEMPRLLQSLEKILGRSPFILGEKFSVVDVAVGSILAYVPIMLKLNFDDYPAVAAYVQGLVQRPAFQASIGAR

[4] = molecular target: T2, SynGSTC1 (Sll0067); assay: as above; assay type: biochemical; conditions: fixed saturating GSH; 30 mM Tris-HCl pH 8.0, 1 mM EDTA; 25 °C
[5] = substrate: S=C=NCCc1ccccc1; assay: purified protein; assay type: biochemical, Synechocystis sp. PCC 6803; conditions: fixed saturating GSH, 100 mM phosphate pH 6.5, 25 °C
[6] = substrate: CCCC(=O)Oc1ccc([N+](=O)[O-])cc1; assay: purified protein; assay type: biochemical, Synechocystis sp. PCC 6803; conditions: fixed saturating GSH, 30 mM Tris-HCl pH 8.0, 1 mM EDTA, 25 °C
[7] = substrate: CC(C)(OO)c1ccccc1; assay: purified protein; conditions: fixed GSH, 200 µM NADPH, 30 mM Tris-HCl pH 8.0, 25 °C

Molecule	Km [5] [µM]	kcat [5] [s⁻¹]	kcat/Km [5] [M⁻¹ s⁻¹]	also measured
OCCSSCCO [2-hydroxyethyl disulfide]	–	–	–	Km [1]: 3.3 ± 0.4 µM
glutathione transferase chi1 from Synechocystis sp. PCC 6803 (SynGSTC1), wild-type (enzyme)	–	–	–	stoichiometry N [2]: 2
S=C=NCc1ccccc1 [benzyl-isothiocyanate]	–	–	–	Km [3]: 82 ± 10 µM
O=[N+]([O-])c1ccc(Cl)c([N+](=O)[O-])c1 [1-chloro-2,4-dinitrobenzene]	–	–	–	Km [4]: 3790 ± 772 µM
B1	33.8 ± 2.5	12.6 ± 0.2	373000 ± 6000	Km [6]: 162.5 ± 18.3 µM; kcat [6]: 0.48 ± 0.2 s⁻¹; Km [7]: 1508.0 ± 191.0 µM; kcat [7]: 0.91 ± 0.06 s⁻¹
B2	108.4 ± 6.0	0.17 ± 0.003	1530 ± 20	–
B3	89.7 ± 6.4	2.6 ± 0.05	28900 ± 600	–
B4	33.6 ± 2.6	7.2 ± 0.1	214000 ± 4000	–
B5	33.0 ± 3.0	1.19 ± 0.02	36000 ± 600	–
